# Test results published in patent US7056694B1, “DNA encoding peripheral-type benzodiazipine receptor associated protein 7 and applications or methods of use” (Georgetown University, priority 1998, dated 2006).
# B1: PAP20 (PBR associated protein 20), two-hybrid clone in pGAD10 (other)
# chain: ANFNQSGNIADSSLSFTFTNSSNGPNLITTQTNSQALSQPIASSNVHDNFMNNEITASKIDDGNNSKPLSPGWTDQTAYNAFGITTGMFNTTTMDDVYNYLFDDEDTPPNPKKENSRPRRPQKRKRGAEVLAAQIVQKTRLERKKQEASVSKDAPVPTNTKRAKKQEKSPGRIASQSKPPMKKSPQKRKVNVARGRRNTRKQLQPAEKEIALHLQSEISSDGQKDGLNLSTSQQESISMIPKGPPENSVISCDSQALNMLADLALSSAAASIPSCKPRNLPCVSDLPRNNVLLTKENPLLGASDHEYHKG
# notes: range 768-881
# B2: PAP7: PBR associated protein 7, SEQ ID NO:7; in transfection a partial sequence including the PBR binding domain in pSVzeo (protein, listed as Mus musculus)
# chain: RPRRPKVELFTVVTRVKVVLFLNQLSLCKLVKDGKAFHPTYEEKLKFVALHKQVLLGPYNPDTSPEVGFFDVLGNDRRREWAALGNMSKEDAMVEFVKLLNKCCPLLSAYVASHRIEKEEEEKRRKAEEERRQREEEERERLQKEEEKRKREEEDRLRREEEERRRIEEERLRLEQQKQQIMAALNSQTAVQFQQYAAQQYPGNYEQQQILIRQLQEQHYQQYKHQAEQTQPAQQQAALQKQQEVVMAGASLPASSKVNTAGASDTLSVNGQAKTHTENSEKVLEPEAAEEALENGPKDSLPVIAAPSMWTRPQIKDFKEKIRQDADSVITVRRGEVVTVRVPTHEEGSYLFWEFATDSYDIGFGVYFEWTDSPNAAVSVHVSESSDEEEEEEENVTCEEKAKKNANKPLLDEIVPVYRRDCHEEVYAGSHQYPGRGVYLLKFDNSYSLWRSKSVYYRVYYTR
# B3: PAP20: PBR associated protein, polypeptide of 196 amino acids, SEQ ID NO:10; predominantly expressed in testis (protein, listed as Mus musculus)
# chain: NSRPRRPQKRKRGAEVLAAQIVQKTRLERKKQEASVSKDAPVPTNTKRAKKQEKSPGRIASQSKPPMKKSPQKRKVNVARGRRNTRKQLQPAEKEIALHLQSEISSDGQKDGLNLSTSQQESISMIPKGPPENSVISCDSQALNMLADLALSSAAASIPSCKPRNLPCVSDLPRNNVLLTKENPLLGASDHEYHKG
# Key:
# [1] = target: T1, GAL4 (1-147)-PBR fusion (plasmid pGBT9+PBR), mouse peripheral-type benzodiazepine receptor as two-hybrid bait (mouse, UniProt P04386 1-147; P50637 1-169); test: yeast two-hybrid, His3 reporter (histidine prototrophy), second-round transformation of HF7c carrying pGBT9-PBR
# T1 construct: Bait of the yeast two-hybrid screen, expressed in yeast HF7c; also called pGBT-PBR; fusion PBR protein
# From the text: The Clontech […] two-hybrid system was applied in this study (detailed in manufacturer's instruction book). Briefly, the yeast reporter host strain HF7c was simultaneously cotransformed with both pGBT-PBR and the mouse testis cDNA library in pGAD10 plasmid by using lithium acetate high-efficiency method (Gietz, D. et al., 1992, *Nucleic Acids Res.* 20, 1425). HIS positive clones were further selected by colony lift filter assay for β-galactosidase activity. Plasmid DNA was rescued in *Escherichia coli* DH5? from yeast cells. Plasmids were retransformed into yeast HF7c cells with plasmid pGBT-PBR to test for histidine prototrophy and β-galactosidase activity (Clontech manual). The cDNA inserts from the positive clones were sequenced. The full length PAP7 cDNA was obtained by using 5' and 3' RACE kit from kit (CLONTECH, Palo Alto, Calif.).
# Library plasmids from these transformants were rescued in *E. coli* strain DH5α. Both the His+ phenotype and the expression of β-galactosidase were confirmed by a second-round transformation of strain HF7c carrying pGBT9-PBR (Table 1).
# MA-10 cells = test: Steroid biosynthesis: hCG-stimulated progesterone production in transfected MA-10 cells; format: cell-based, mouse; details: pSVzeoPAP7 vs pSVzeo empty vector transfectants, hCG 50 ng/ml, dose and time dependent
# Description: MA-10 cells were grown in modified Waymouth's MB752/1 medium containing 15% horse serum, as described previously (Papadopoulos, V. et al., 1990, J. Biol. Chem. 265, 3772–3779). Mouse C6 glioma and mouse Y1 adrenal cortical cells were cultured in DMEM and DMEM F12 repectively, with 10% fetal bovine serum. MA10 cells were transiently transfected by electroporation (El Hefnawy, T. et al., 1996, Mol. Cell Endocrinol. 119, 207–217). Each Genepulser cuvette (0.4 cm-gap, BioRad, Hercules, Calif.) contained 8×10^6 cells in 350 μl antibiotic-free complete Waymouth's growth medium (see above), plus 30 μg plasmids DNA in 50 μl of 0.1×TE. Cells in electroporation cuvettes were electro-shocked at 330 V and at a capacitance of 950 μFd generated from Genepulser (BioRad, Hercules, Calif.). The cells were kept immediately on ice for 10 min before plated into 96 well plates.
# MA-10 cells were plated into 96-well plate at the density of 2.5×10^4/well for overnight. The cells were stimulated with 50 ng/ml hCG in 0.2 ml/well serum-free medium for 2 hours. The culture medium was collected and tested for progesterone production by RIA. The assay was carried out by using anti-progesterone antisera (ICN, Costa Mesa, Calif.), following the conditions recommended by the manufacturer. […] Radioimmunoassay data was analyzed using the software provided by Wallac (EG&G Wallac, Gaithersburg, Md.). […]
# PBR = PBR (Mus musculus, UniProt P50637); test: PK 11195 radioligand binding to PBR interacting with PAP20; details: PK11195 as a ligand
# Chain of PBR (P50637 whole entry): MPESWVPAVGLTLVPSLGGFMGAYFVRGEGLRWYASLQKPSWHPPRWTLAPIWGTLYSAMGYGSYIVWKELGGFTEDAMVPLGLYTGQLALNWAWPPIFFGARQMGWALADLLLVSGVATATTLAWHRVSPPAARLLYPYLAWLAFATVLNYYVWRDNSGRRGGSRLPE
# Description: ^3H-1-(2-chlorophenyl)-N-methyl-N-(1-methyl-propyl)-3-isoquinolinecarboxamide (PK 11195) (NEN, Boston, Mass.) binding studies were performed as we previously described (Papadopoulos, V. et al., 1990, supra; Garnier, M. et al., 1994, Molecular Pharmacology 45, 201–211). The dissociation constant (Kd) and the number of binding sites (Bmax) were determined by Scatchard plot analysis of the data using the LIGAND program (Munson, P. J. and Rodbard, D., 1980, Anal. Biochem. 107, 220–239).
molecule,measurement,setting,value
B1,binding result,[1],binds
B2,progesterone production in response to hormonal (hCG) stimulation,MA-10 cells,significantly reduced
same,progesterone production in response to hormonal (hCG) stimulation,MA-10 cells; listed as PAP7 fragment,significantly inhibited
B3,affinity of ligand binding to PBR,PBR,increased the affinity of ligand binding
